Source: US20170306038A1 (published 2017)
Where a chain is given by its changes, count along the chain named. Each block holds one binder with its values, some of them ahead of it.

Legend:
human GITR on cells = target: T1, human GITR on cells (human, UniProt Q9Y5U5 27-241); experiment: FACS competition on HEK293 cells stably expressing hGITR: human GITR ligand titrated first, then 4 nM MAB7 as the competitor read out with PE anti-human
T1 construct: also called hGITR; 293 cells stably transfected with human GITR
T1 sequence: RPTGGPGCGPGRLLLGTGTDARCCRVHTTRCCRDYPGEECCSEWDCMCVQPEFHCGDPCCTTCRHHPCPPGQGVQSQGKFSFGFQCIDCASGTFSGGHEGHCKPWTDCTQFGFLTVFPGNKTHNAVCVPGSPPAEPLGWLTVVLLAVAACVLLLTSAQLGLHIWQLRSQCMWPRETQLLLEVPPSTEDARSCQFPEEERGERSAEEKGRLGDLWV
Method: The ability of MAB to block ligand binding was assessed using HEK293 NFκB reporter parental cells and hGITR stable cells were used in competition binding assays and FACS analysis. Briefly, harvested cells were plated 1×10⁶ cells per mL, 100 μL per well to a 96 well round bottom FACS plate (Corning), then resuspended in 200 μL of cold FACS buffer (1×PBS+1% FBS-HI+0.1% sodium azide) per well. […] Plates were incubated for 1 hour on ice protected from light, cells washed, then prepared 4 nM isotype control or MAB solutions were prepared and added to appropriate wells at 100 μL per well and plates were incubated for 1 hour on ice protected from light, cells washed, then PE-conjugated goat-anti-human detection antibody (Jackson ImmunoResearch) prepared at 1:100 dilution in FACS buffer was added at 100 μL per well and plates were incubated for 30 minutes on ice protected from light. Cells were washed in FACS buffer then cells were fixed with 100 μL per well of BD CytoFix (BD Biosciences) and incubated for further 15 minutes on ice protected from light.

cyno GITR (cGITR) [1] = target: cyno GITR (cGITR) (cynomolgus monkey); experiment: Biacore
FAS = target: T2, FAS; experiment: specificity ELISA on bacterial lysates with TNFRSF members, HisGrab nickel plate
T2 construct: not shown: His tag, implied by the HisGrab nickel plate; The construct's exact limits are also wanting
T2 chain: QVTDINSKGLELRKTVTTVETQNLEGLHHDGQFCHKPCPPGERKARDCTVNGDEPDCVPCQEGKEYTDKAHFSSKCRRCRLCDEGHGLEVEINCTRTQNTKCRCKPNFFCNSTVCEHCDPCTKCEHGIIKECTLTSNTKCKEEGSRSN
Method: For the specificity ELISA, a crude cell lysate was made from bacteria expressing members of the TNFRSF family. To prevent nonspecific binding to the plate 50 μL of 5% BSA was added per mL of bacterial lysate. […] The plate was then rinsed three times with PBST, then MAB was diluted to 0.5 μg/mL in 10% FBS in PBS and 100 μL was added to each well. The plate was incubated for 1 hour at room temperature and then rinsed three times with PBST. Anti-human kappa antibody (Sigma #A7164) conjugated to HRP was diluted 1:5000 in 1:1 PBST: 10% FBS in PBS and 100 μL added to each well. The plate was incubated for 1 hour at room temperature, and then washed three times with PBST. 100 μL of SureBlue TMB substrate was added to each well and the plate was incubated for about 10 min at room temperature before stopping the reaction with 100 μL/well of 2N H₂SO₄.

cyno GITR (cGITR) [2] = target: cyno GITR (cGITR) (cynomolgus monkey); experiment: Biacore; remark: listed apart in the source

IC50 (read off the curve) (human GITR on cells): ~0.2 molar ratio (Human GITR Ligand to MAB7)
B1: recombinant human GITR ligand (GITR-L) (ligand, UniProt Q9UNG2 52-177, looked up)
chain: ETAKEPCMAKFGPLPSKWQMASSEPPCVNKVSDWKLEILQNGLYLIYGQVAPNANYNDVAPFEVRLYKNKDMIQTLTNKSKIQNVGGTYELHVGDTIDLIFNSEHQVLKNNTYWGIILLANPQFIS

Kd (cyno GITR (cGITR) [1]): 1.78 nM
fold lower binding affinity for cyno GITR against human GITR (cyno GITR (cGITR) [2]): 2 to 3 fold
B2: MAB4 (IgG1 kappa) (antibody, V domains shown)
VH: EVQLVESGGGLVQSGGSLRLSCAASGFSLSSYGVDWVRQAPGKGLEWVGVIWGGGGTYYASSLMGRFTISRDNSKNTLYLQMNSLRAEDTAVYYCAKHAYGHDGGFAMDYWGQGTLVTVSS
VL: EIVMTQSPATLSVSPGERATLSCRASESVSSNVAWYQQRPGQAPRLLIYGASNRATGIPARFSGSGSGTDFTLTISRLEPEDFAVYYCGQSYSYPFTFGQGTKLEIKR
binding result (FAS): no binding (tested: 0.5 µg/mL (not on the sheet))

Kd (cyno GITR (cGITR) [1]): 3.67 nM
B3: MAB7 (IgG1 kappa) (antibody, V domains shown)
VH: B2 VH with K97R
VL: B2 VL
notes: MAB4 with the glycation site KH changed to RH

Kd (cyno GITR (cGITR) [1]): 1.87 nM
fold lower binding affinity for cyno GITR against human GITR (cyno GITR (cGITR) [2]): 2 to 3 fold
B4: MAB5 (IgG1 kappa) (antibody, V domains shown)
VH: B2 VH with V48L, A60T
VL: B2 VL
binding result (FAS): no binding (tested: 0.5 µg/mL (not on the sheet))
